Where no end group is shown, it is not given here. The star is where a group is joined. For = O=C*
T1: FLAG-tagged human FPR2 (Hs_FPR2) (human, UniProt P25090 1-351)
T1 sequence (looked up): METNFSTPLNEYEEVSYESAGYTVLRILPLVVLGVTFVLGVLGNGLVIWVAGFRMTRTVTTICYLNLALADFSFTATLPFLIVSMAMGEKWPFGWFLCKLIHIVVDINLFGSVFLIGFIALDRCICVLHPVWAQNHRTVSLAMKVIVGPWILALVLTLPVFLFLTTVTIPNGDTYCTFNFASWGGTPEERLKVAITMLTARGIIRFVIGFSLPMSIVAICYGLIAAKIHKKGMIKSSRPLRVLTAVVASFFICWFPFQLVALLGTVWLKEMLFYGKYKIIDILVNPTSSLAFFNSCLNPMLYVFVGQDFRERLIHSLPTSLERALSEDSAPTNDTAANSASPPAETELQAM

T2: FLAG-tagged human FPR1 (Hs_FPR1) (human, UniProt P21462 1-350)
T2 sequence (looked up): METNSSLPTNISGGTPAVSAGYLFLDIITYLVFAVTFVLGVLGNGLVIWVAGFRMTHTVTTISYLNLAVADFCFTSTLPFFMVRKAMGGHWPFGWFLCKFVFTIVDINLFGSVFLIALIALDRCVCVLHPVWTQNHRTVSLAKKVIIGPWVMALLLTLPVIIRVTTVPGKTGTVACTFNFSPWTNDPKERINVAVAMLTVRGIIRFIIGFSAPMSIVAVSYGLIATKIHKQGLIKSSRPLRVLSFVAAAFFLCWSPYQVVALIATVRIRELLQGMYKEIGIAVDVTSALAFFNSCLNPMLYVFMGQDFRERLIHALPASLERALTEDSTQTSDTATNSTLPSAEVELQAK

T3: FLAG-tagged mouse Fpr1 (Mm_Fpr1) (mouse, UniProt P33766 1-364)
T3 sequence (looked up): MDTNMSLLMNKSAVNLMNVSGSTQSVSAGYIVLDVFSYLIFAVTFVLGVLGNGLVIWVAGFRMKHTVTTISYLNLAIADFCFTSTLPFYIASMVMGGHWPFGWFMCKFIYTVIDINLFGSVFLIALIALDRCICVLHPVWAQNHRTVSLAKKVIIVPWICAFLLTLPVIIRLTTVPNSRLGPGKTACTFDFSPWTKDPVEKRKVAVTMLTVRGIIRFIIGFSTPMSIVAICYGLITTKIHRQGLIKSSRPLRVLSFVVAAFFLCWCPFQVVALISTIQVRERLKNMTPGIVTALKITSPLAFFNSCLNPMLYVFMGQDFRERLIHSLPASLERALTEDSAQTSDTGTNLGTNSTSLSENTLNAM

T4: FLAG-tagged mouse Fpr2 (Mm_Fpr2) (mouse, UniProt O88536 1-351)
T4 sequence (looked up): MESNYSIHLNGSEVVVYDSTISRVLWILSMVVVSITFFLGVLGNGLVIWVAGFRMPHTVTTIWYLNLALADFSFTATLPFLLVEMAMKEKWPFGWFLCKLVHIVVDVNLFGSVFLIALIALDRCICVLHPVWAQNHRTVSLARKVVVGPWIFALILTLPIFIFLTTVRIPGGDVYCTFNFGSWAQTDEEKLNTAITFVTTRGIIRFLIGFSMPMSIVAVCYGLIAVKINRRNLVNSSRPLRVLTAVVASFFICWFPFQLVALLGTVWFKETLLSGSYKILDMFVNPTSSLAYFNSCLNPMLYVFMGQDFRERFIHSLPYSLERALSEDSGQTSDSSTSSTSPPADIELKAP

T5: FLAG-Hs_FPR2 C-terminally fused to Renilla Luciferase 8 (human, UniProt P25090 1-351)
T5 sequence (looked up): T1 sequence (looked up)

T6: FLAG-Mm_Fpr2 C-terminally fused to Renilla Luciferase 8 (mouse, UniProt O88536 1-351)
T6 sequence (looked up): T4 sequence (looked up)

T7: FLAG-Mm_Fpr1 C-terminally fused to Renilla Luciferase 8 (mouse, UniProt P33766 1-364)
T7 sequence (looked up): T3 sequence (looked up)

T8: FLAG-Hs_FPR1 C-terminally fused to Renilla Luciferase 8 (human, UniProt P21462 1-350)
T8 sequence (looked up): T2 sequence (looked up)


Legend:
[1] = target: T1, FLAG-tagged human FPR2 (Hs_FPR2)
[2] = target: T2, FLAG-tagged human FPR1 (Hs_FPR1)
[3] = target: T3, FLAG-tagged mouse Fpr1 (Mm_Fpr1)
[4] = target: T2, FLAG-tagged human FPR1 (Hs_FPR1); assay: flow cytometry on cells; competition binding: HEK293 cells stably expressing the receptor, lifted in PBS, on ice 90 min with 10 nM K(5/6-FAM)-WKYMVm and increasing unlabeled ligand; mean fluorescence of 5000 cells as % of that without competitor; One site-Fit logIC50
[5] = target: T1, FLAG-tagged human FPR2 (Hs_FPR2); remark: listed apart in the source
[6] = target: T2, FLAG-tagged human FPR1 (Hs_FPR1); remark: listed apart in the source
[7] = target: T3, FLAG-tagged mouse Fpr1 (Mm_Fpr1); remark: listed apart in the source
[8] = target: T4, FLAG-tagged mouse Fpr2 (Mm_Fpr2)
[9] = target: T4, FLAG-tagged mouse Fpr2 (Mm_Fpr2); remark: listed apart in the source
[10] = target: T5, FLAG-Hs_FPR2 C-terminally fused to …; assay: cell-based or functional assay
[11] = target: T6, FLAG-Mm_Fpr2 C-terminally fused to …; assay: cell-based or functional assay
[12] = target: T7, FLAG-Mm_Fpr1 C-terminally fused to …; assay: cell-based or functional assay
[13] = target: T8, FLAG-Hs_FPR1 C-terminally fused to …; assay: cell-based or functional assay
[14] = target: T5, FLAG-Hs_FPR2 C-terminally fused to …; assay: cell-based or functional assay; remark: listed apart in the source
[15] = target: T6, FLAG-Mm_Fpr2 C-terminally fused to …; assay: cell-based or functional assay; remark: listed apart in the source
[16] = target: T7, FLAG-Mm_Fpr1 C-terminally fused to …; assay: cell-based or functional assay; remark: listed apart in the source
[17] = target: T8, FLAG-Hs_FPR1 C-terminally fused to …; assay: cell-based or functional assay; remark: listed apart in the source

Molecule | ERK1/2 phosphorylation (Western blot): Emax (% of 1 μM WKYMVm) [1] [%] | ERK1/2 phosphorylation (Western blot): Log EC50 (M) [1] [log M] | ERK1/2 phosphorylation (Western blot): Emax (% of 1 μM WKYMVm) [2] [%] | ERK1/2 phosphorylation (Western blot): Log EC50 (M) [2] [log M] | ERK1/2 phosphorylation (Western blot): Emax (% of 1 μM WKYMVm) [3] [%] | ERK1/2 phosphorylation (Western blot): Log EC50 (M) [3] [log M] | Log IC50 [4] [log M] | Max Comp (%) [4] [%] | receptor internalization (flow cytometry): Emax (% of 1 μM WKYMVm) [5] [%] | receptor internalization (flow cytometry): Log EC50 (M) [5] [log M] | receptor internalization (flow cytometry): Emax (% of 1 μM WKYMVm) [6] [%] | receptor internalization (flow cytometry): Log EC50 (M) [6] [log M] | receptor internalization (flow cytometry): Emax (% of 1 μM WKYMVm) [7] [%] | receptor internalization (flow cytometry): Log EC50 (M) [7] [log M] | receptor internalization (flow cytometry): Emax (% of 1 μM WKYMVm) [8] [%] | receptor internalization (flow cytometry): Log EC50 (M) [8] [log M] | other results
fMet-Leu-Phe (fMLF) (peptide) | 40.2 | -4.82 | 143 | -8.91 | 72.7 | -5.64 | -6.19 | 88 | 0.343 | -8.95 | 92.1 | -7.38 | 92.5 | -5.35 | 54.4 | -3.8 | –
For-MLFK [fMet-Leu-Phe-Lys (fMLFK)] | 74.3 | -5.88 | 112 | -8.16 | 140 | -6.07 | -6.23 | 63.3 | 99.9 | -4.48 | 79.3 | -7.79 | 179 | -5.21 | 81.6 | -4.94 | ERK1/2 phosphorylation (Western blot): Emax (% of 1 μM WKYMVm) [9]: 176%; ERK1/2 phosphorylation (Western blot): Log EC50 (M) [9]: -5.91 log M; BRET of receptor-RLuc8 with Arrestin 3-YFP: Emax (% of 1 μM WKYMVm) [10]: 92.7%; BRET of receptor-RLuc8 with Arrestin 3-YFP: Log EC50 (M) [10]: -4.44 log M; BRET of receptor-RLuc8 with Arrestin 3-YFP: Emax (% of 1 μM WKYMVm) [11]: 72.5%; BRET of receptor-RLuc8 with Arrestin 3-YFP: Log EC50 (M) [11]: -4.79 log M; BRET of receptor-RLuc8 with Arrestin 3-YFP: Emax (% of 1 μM WKYMVm) [12]: 95.2%; BRET of receptor-RLuc8 with Arrestin 3-YFP: Log EC50 (M) [12]: -5.14 log M; BRET of receptor-RLuc8 with Arrestin 3-YFP: Emax (% of 1 μM WKYMVm) [13]: 97.4%; BRET of receptor-RLuc8 with Arrestin 3-YFP: Log EC50 (M) [13]: -7.45 log M; BRET of receptor-RLuc8 with Venus-mGsi: Emax (% of 1 μM WKYMVm) [14]: 80.7%; BRET of receptor-RLuc8 with Venus-mGsi: Log EC50 (M) [14]: -4.57 log M; BRET of receptor-RLuc8 with Venus-mGsi: Emax (% of 1 μM WKYMVm) [15]: 82.7%; BRET of receptor-RLuc8 with Venus-mGsi: Log EC50 (M) [15]: -4.52 log M; BRET of receptor-RLuc8 with Venus-mGsi: Emax (% of 1 μM WKYMVm) [16]: 62.9%; BRET of receptor-RLuc8 with Venus-mGsi: Log EC50 (M) [16]: -5.02 log M; BRET of receptor-RLuc8 with Venus-mGsi: Emax (% of 1 μM WKYMVm) [17]: 104%; BRET of receptor-RLuc8 with Venus-mGsi: Log EC50 (M) [17]: -7.07 log M
